How the values were obtained:
[1] = biological target: RNF43-ECDTM (RNF43 extracellular domain anchored by its transmembrane domain) on HEK293T cells (UniProt Q68DV7); test: whole-cell binding, fluorescence plate reader; Fc-tagged ligand in 3x serial dilution on cells in 96-well plates, on ice 1 h, washed, fixed with 4.2% paraformaldehyde, Alexa555-labeled anti-human IgG antibody; half-maximum binding (KD) from a three-parameter dose-response fit
[2] = biological target: ZNRF3ΔRING (ZNRF3 with deletion of the RING domain) on HEK293T cells (UniProt Q9ULT6); test: as above
[3] = biological target: LGR4 (HA-LGR4) over-expressed on HEK293 cells (UniProt Q9BXB1); test: as above
[4] = biological target: LGR5ΔCT (human LGR5 without the cytoplasmic C-terminal tail) on HEK293 cells (human) (UniProt O75473); test: as above
[5] = biological target: LGR5ΔCT (human LGR5 without the cytoplasmic C-terminal tail) on HEK293 cells (human) (UniProt O75473); test: whole-cell binding, fluorescence plate reader; His-tagged ligand in 3x serial dilution on cells in 96-well plates, on ice 1 h, washed, fixed with 4.2% paraformaldehyde, Alexa488-labeled anti-His antibody; half-maximum binding (KD) from a three-parameter dose-response fit

RNF43-ECDTM (RNF43 extracellular domain anchored by its transmembrane domain) on HEK293T cells, sequence (Q68DV7 24-218): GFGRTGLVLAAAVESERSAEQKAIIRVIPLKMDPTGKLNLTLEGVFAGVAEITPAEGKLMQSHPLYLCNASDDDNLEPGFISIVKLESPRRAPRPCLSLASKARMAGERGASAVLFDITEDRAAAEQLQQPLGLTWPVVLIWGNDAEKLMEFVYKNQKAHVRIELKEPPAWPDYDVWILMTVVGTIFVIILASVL

Substance	Kd [1] [nM]	Kd [2] [nM]	Kd [3] [nM]	Kd [4] [nM]	Kd [5] [nM]
R2Fu-Q70R-bFc (bivalent RSPO2 furin domain with Gln70 to Arg) (from UniProt Q6UXX9 22-243) (Fc fusion)	6.3	2.9			
R2Fu-Q70R-mFc (monovalent RSPO2 furin domain with Gln70 to Arg) (from UniProt Q6UXX9 22-243) (Fc fusion)	> 100	> 100			
R2Fu-bFc (RSPO2 furin domain fused to wild-type IgG1-Fc, bivalent) (from UniProt Q6UXX9 37-143) (Fc fusion)			1.6	0.8	
R2Fu-mFc (RSPO2 furin domain fused to monomeric human IgG4-Fc, monovalent) (from UniProt Q6UXX9 37-143) (Fc fusion)			> 50	1.4	
R2FuTSP-His (RSPO2 furin domain with TSP domain, His-tagged) (from UniProt Q6UXX9 22-205) (domain or fragment)					2.6
RSPO2 furin domain with a C-terminal His tag (R2Fu-His) (from UniProt Q6UXX9 37-143) (domain or fragment)					1.9

— paper PMC10319729
